The source of these data is publication PMC11502334, “Fungal glyceraldehyde 3-phosphate dehydrogenase GpdC maintains glycolytic mechanism against reactive nitrogen stress-induced damage” (Frontiers in Microbiology, 2024).

Holding throughout (assay): purified protein
What all share (format): biochemical, Aspergillus nidulans

Substrate in data set [1]: NC(=O)c1ccc[n+]([C@@H]2O[C@H](COP(=O)(O)OP(=O)(O)OC[C@H]3O[C@@H](n4cnc5c(N)ncnc54)[C@H](O)[C@@H]3O)[C@@H](O)[C@H]2O)c1
Conditions: GAP as co-substrate, 30 mM sodium pyrophosphate, 10 mM potassium phosphate, pH 8.4, 25°C, varied: cofactor.

Substrate in data set [2]: NC(=O)c1ccc[n+]([C@@H]2O[C@H](COP(=O)(O)OP(=O)(O)OC[C@H]3O[C@@H](n4cnc5c(N)ncnc54)[C@H](OP(=O)(O)O)[C@@H]3O)[C@@H](O)[C@H]2O)c1
The note with it: GAP as co-substrate, 30 mM sodium pyrophosphate, 10 mM potassium phosphate, pH 8.4, 25°C, varied: cofactor.

Substrate in data set [3]: O=C[C@H](O)COP(=O)(O)O
The note with it: 30 mM sodium pyrophosphate, 10 mM potassium phosphate, pH 8.4, 25°C.

Where [4] appears, read: co-substrate (NAD+ or NADP+) not given.

B1: rGpdC (GpdC) (Aspergillus nidulans FGSC A4) (protein)
chain: MAPSINEIPISDSPSACRVGINGFGRIGRNVLRVALARNDIQIVAINHTCTSVQDLIYLIRYDSSMGKLSPDIPIHAISETQISVNGRPIALTSERDLKKLNWAALGAEYVVECTGKFTKRELAQDHITYGGAKRVVISAPSSDSPTYVYGVNADEYRANEETRVISCASCTTNCVTPVLKVLQREFGIAQGFLTTVHAATKSQTVLDGYSKKNRRLGRSVFDNIIPTTTGAAKAIASVLPELTGKVTGASIRVPTPNVSLIDLTVSTETPTSLAEILAAFRRAAKNELAGVLSVSDEVLVSSDYLGDSHSAIVDAAACSELNPTFFKIMAWYDNEWGYSSRLLDLTRHIAHNE
notes: recombinant from synthetic E. coli codon-optimized gene, vector pET-21a (Nde I/Hind III), expressed in E. coli BL21 (DE3), HisTrap purified
For the protein B1, the values for the Km in “purified protein [1]”, in the data set “purified protein [2]” and in “purified protein [3]” (setting [4]) were 420 ± 20 µM, 47 ± 2 µM and 290 ± 20 µM, respectively. Moreover, the kcat (usually the maximal rate divided by the concentration of active sites) came out at 4 ± 0.333 s⁻¹ in the data set “purified protein [1]”, 8.83 ± 0.5 s⁻¹ in “purified protein [2]” and 2.67 ± 0.333 s⁻¹ in the data set “purified protein [3]” (setting [4]). The kcat/Km (commonly the turnover number divided by the Michaelis constant) in “purified protein [1]” amounted to 9330 ± 333 M⁻¹ s⁻¹; in “purified protein [2]” it was 183000 ± 16700 M⁻¹ s⁻¹; in the data set “purified protein [3]” (setting [4]), 9170 ± 333 M⁻¹ s⁻¹.

B2: rGpdA (GpdA) (Aspergillus nidulans FGSC A4) (protein)
chain: MAPKVGINGFGRIGRIVFRNAIEAGTVDVVAVNDPFIETHYAAYMLKYDSQHGQFKGTIETYDEGLIVNGKKIRFHTERDPANIPWGQDGAEYIVESTGVFTTQEKASAHLKGGAKKVVISAPSADAPMFVMGVNNETYKKDIQVLSNASCTTNCLAPLAKVINDNFGIIEGLMTTVHSYTATQKVVDGPSAKDWRGGRTAATNIIPSSTGAAKAVGKVIPSLNGKLTGMAMRVPTSNVSVVDLTVRTEKAVTYDQIKDAVKKASENELKGILGYTEDDIVSTDLNGDTRSSIFDAKAGIALNSNFIKLVSWYDNEWGYSRRVVDLITYISKVDAQ
notes: recombinant from cDNA, vector pET-21a, expressed in E. coli BL21 (DE3), HisTrap purified
For the protein B2, in “purified protein [1]”, the Km (in general, the substrate concentration at which the rate is half of its maximum) stood at 180 ± 30 µM; the kcat came out at 85 ± 3.33 s⁻¹; the kcat/Km is 467000 ± 117000 M⁻¹ s⁻¹. Also, in the data set “purified protein [3]” (NAD+ as co-substrate), the Km turned out to be 410 ± 90 µM, the kcat is 55 ± 3.33 s⁻¹ and the catalytic efficiency (kcat/Km) came out at 132000 ± 40000 M⁻¹ s⁻¹.
